± gives the uncertainty stated by the source.
B1: Steroid hormone receptor ERR2, residues 100 to 176; numbered along this chain, O95718 (parent)
chain: KRLCLVCGDIASGYHYGVASCEACKAFFKRTIQGNIEYSCPATNECEITKRRRKSCQACRFMKCLKVGMLKEGVRLD

Variants of: B1
Assay: abundance fitness (aPCA) (normalised: wild type 0, dead -1); higher = more abundant; growth selection in yeast, the domain comes from the species named
Conditions: Homo sapiens

Variant | abundance fitness
KRLCLVCGDIASGYHYRVASCEACKAFFKRTIQGNIEYSCPATNECEITKRRRKSCQACRFMKCLKVGMLKEGVRLD | -0.495 ± 0.055
KRLCLVCGDIASGYHYVVASCEACKAFFKRTIQGNIEYSCPATNECEITKRRRKSCQACRFMKCLKVGMLKEGVRLD | -0.413 ± 0.055
KRLCLVCGDIASGYHYWVASCEACKAFFKRTIQGNIEYSCPATNECEITKRRRKSCQACRFMKCLKVGMLKEGVRLD | -0.359 ± 0.075
KRLCLVCGDIASGYHYTVASCEACKAFFKRTIQGNIEYSCPATNECEITKRRRKSCQACRFMKCLKVGMLKEGVRLD | -0.337 ± 0.078
KRLCLVCGDIASGYHYSVASCEACKAFFKRTIQGNIEYSCPATNECEITKRRRKSCQACRFMKCLKVGMLKEGVRLD | -0.266 ± 0.056
KRLCLVCGDIASGYHYGVLSCEACKAFFKRTIQGNIEYSCPATNECEITKRRRKSCQACRFMKCLKVGMLKEGVRLD | -0.046 ± 0.041
KRLCLVCGDIASGYHYGVMSCEACKAFFKRTIQGNIEYSCPATNECEITKRRRKSCQACRFMKCLKVGMLKEGVRLD | -0.117 ± 0.055
KRLCLVCGDIASGYHYGVRSCEACKAFFKRTIQGNIEYSCPATNECEITKRRRKSCQACRFMKCLKVGMLKEGVRLD | -0.331 ± 0.041
KRLCLVCGDIASGYHYGVFSCEACKAFFKRTIQGNIEYSCPATNECEITKRRRKSCQACRFMKCLKVGMLKEGVRLD | -0.326 ± 0.14
KRLCLVCGDIASGYHYGVTSCEACKAFFKRTIQGNIEYSCPATNECEITKRRRKSCQACRFMKCLKVGMLKEGVRLD | -0.085 ± 0.056
KRLCLVCGDIASGYHYGVNSCEACKAFFKRTIQGNIEYSCPATNECEITKRRRKSCQACRFMKCLKVGMLKEGVRLD | 0.005 ± 0.085
KRLCLVCGDIASGYHYGVQSCEACKAFFKRTIQGNIEYSCPATNECEITKRRRKSCQACRFMKCLKVGMLKEGVRLD | -0.113 ± 0.057
KRLCLVCGDIASGYHYGVISCEACKAFFKRTIQGNIEYSCPATNECEITKRRRKSCQACRFMKCLKVGMLKEGVRLD | -0.464 ± 0.14
KRLCLVCGDIASGYHYGVESCEACKAFFKRTIQGNIEYSCPATNECEITKRRRKSCQACRFMKCLKVGMLKEGVRLD | 0.043 ± 0.05
KRLCLVCGDIASGYHYGVWSCEACKAFFKRTIQGNIEYSCPATNECEITKRRRKSCQACRFMKCLKVGMLKEGVRLD | -0.307 ± 0.057
KRLCLVCGDIASGYHYGVKSCEACKAFFKRTIQGNIEYSCPATNECEITKRRRKSCQACRFMKCLKVGMLKEGVRLD | -0.135 ± 0.055
KRLCLVCGDIASGYHYGVYSCEACKAFFKRTIQGNIEYSCPATNECEITKRRRKSCQACRFMKCLKVGMLKEGVRLD | -0.223 ± 0.092
KRLCLVCGDIASGYHYGVVSCEACKAFFKRTIQGNIEYSCPATNECEITKRRRKSCQACRFMKCLKVGMLKEGVRLD | 0.035 ± 0.038
KRLCLVCGDIASGYHYGVSSCEACKAFFKRTIQGNIEYSCPATNECEITKRRRKSCQACRFMKCLKVGMLKEGVRLD | 0.049 ± 0.045
KRLCLVCGDIASGYHYGVDSCEACKAFFKRTIQGNIEYSCPATNECEITKRRRKSCQACRFMKCLKVGMLKEGVRLD | 0.046 ± 0.067
KRLCLVCGDIASGYHYGVCSCEACKAFFKRTIQGNIEYSCPATNECEITKRRRKSCQACRFMKCLKVGMLKEGVRLD | -0.41 ± 0.1
KRLCLVCGDIASGYHYGVPSCEACKAFFKRTIQGNIEYSCPATNECEITKRRRKSCQACRFMKCLKVGMLKEGVRLD | -0.065 ± 0.074
KRLCLVCGDIASGYHYGVASCAACKAFFKRTIQGNIEYSCPATNECEITKRRRKSCQACRFMKCLKVGMLKEGVRLD | 0.012 ± 0.046
KRLCLVCGDIASGYHYGVAGCEACKAFFKRTIQGNIEYSCPATNECEITKRRRKSCQACRFMKCLKVGMLKEGVRLD | 0.282 ± 0.032

Variant | abundance fitness
KRLCLVCGDIASGYHYGVADCEACKAFFKRTIQGNIEYSCPATNECEITKRRRKSCQACRFMKCLKVGMLKEGVRLD | -0.218 ± 0.094
KRLCLVCGDIASGYHYGVAECEACKAFFKRTIQGNIEYSCPATNECEITKRRRKSCQACRFMKCLKVGMLKEGVRLD | -0.232 ± 0.051
KRLCLVCGDIASGYHYGVAACEACKAFFKRTIQGNIEYSCPATNECEITKRRRKSCQACRFMKCLKVGMLKEGVRLD | 0.353 ± 0.038
KRLCLVCGDIASGYHYGVACCEACKAFFKRTIQGNIEYSCPATNECEITKRRRKSCQACRFMKCLKVGMLKEGVRLD | 0.414 ± 0.047
KRLCLVCGDIASGYHYGVARCEACKAFFKRTIQGNIEYSCPATNECEITKRRRKSCQACRFMKCLKVGMLKEGVRLD | -0.381 ± 0.048
KRLCLVCGDIASGYHYGVAWCEACKAFFKRTIQGNIEYSCPATNECEITKRRRKSCQACRFMKCLKVGMLKEGVRLD | -0.052 ± 0.047
KRLCLVCGDIASGYHYGVAQCEACKAFFKRTIQGNIEYSCPATNECEITKRRRKSCQACRFMKCLKVGMLKEGVRLD | -0.007 ± 0.055
KRLCLVCGDIASGYHYGVATCEACKAFFKRTIQGNIEYSCPATNECEITKRRRKSCQACRFMKCLKVGMLKEGVRLD | 0.346 ± 0.047
KRLCLVCGDIASGYHYGVAICEACKAFFKRTIQGNIEYSCPATNECEITKRRRKSCQACRFMKCLKVGMLKEGVRLD | 0.26 ± 0.075
KRLCLVCGDIASGYHYGVAFCEACKAFFKRTIQGNIEYSCPATNECEITKRRRKSCQACRFMKCLKVGMLKEGVRLD | -0.485 ± 0.12
KRLCLVCGDIASGYHYGVAYCEACKAFFKRTIQGNIEYSCPATNECEITKRRRKSCQACRFMKCLKVGMLKEGVRLD | -0.109 ± 0.12
KRLCLVCGDIASGYHYGVAKCEACKAFFKRTIQGNIEYSCPATNECEITKRRRKSCQACRFMKCLKVGMLKEGVRLD | -0.218 ± 0.059
KRLCLVCGDIASGYHYGVAPCEACKAFFKRTIQGNIEYSCPATNECEITKRRRKSCQACRFMKCLKVGMLKEGVRLD | -0.321 ± 0.079
KRLCLVCGDIASGYHYGVANCEACKAFFKRTIQGNIEYSCPATNECEITKRRRKSCQACRFMKCLKVGMLKEGVRLD | 0.131 ± 0.077
KRLCLVCGDIASGYHYGVAVCEACKAFFKRTIQGNIEYSCPATNECEITKRRRKSCQACRFMKCLKVGMLKEGVRLD | 0.34 ± 0.039
KRLCLVCGDIASGYHYGVAMCEACKAFFKRTIQGNIEYSCPATNECEITKRRRKSCQACRFMKCLKVGMLKEGVRLD | -0.322 ± 0.066
KRLCLVCGDIASGYHYGVALCEACKAFFKRTIQGNIEYSCPATNECEITKRRRKSCQACRFMKCLKVGMLKEGVRLD | -0.185 ± 0.048
KRLCLVCGDIASGYHYGVASGEACKAFFKRTIQGNIEYSCPATNECEITKRRRKSCQACRFMKCLKVGMLKEGVRLD | -0.866 ± 0.078
KRLCLVCGDIASGYHYGVASREACKAFFKRTIQGNIEYSCPATNECEITKRRRKSCQACRFMKCLKVGMLKEGVRLD | -0.761 ± 0.075
KRLCLVCGDIASGYHYGVASNEACKAFFKRTIQGNIEYSCPATNECEITKRRRKSCQACRFMKCLKVGMLKEGVRLD | -1 ± 0.38
KRLCLVCGDIASGYHYGVASDEACKAFFKRTIQGNIEYSCPATNECEITKRRRKSCQACRFMKCLKVGMLKEGVRLD | -0.518 ± 0.3
KRLCLVCGDIASGYHYGVASEEACKAFFKRTIQGNIEYSCPATNECEITKRRRKSCQACRFMKCLKVGMLKEGVRLD | -0.814 ± 0.11
KRLCLVCGDIASGYHYGVASFEACKAFFKRTIQGNIEYSCPATNECEITKRRRKSCQACRFMKCLKVGMLKEGVRLD | -1.04 ± 0.37
KRLCLVCGDIASGYHYGVASMEACKAFFKRTIQGNIEYSCPATNECEITKRRRKSCQACRFMKCLKVGMLKEGVRLD | -0.961 ± 0.15

Variant | abundance fitness
KRLCLVCGDIASGYHYGVASSEACKAFFKRTIQGNIEYSCPATNECEITKRRRKSCQACRFMKCLKVGMLKEGVRLD | -0.532 ± 0.077
KRLCLVCGDIASGYHYGVASIEACKAFFKRTIQGNIEYSCPATNECEITKRRRKSCQACRFMKCLKVGMLKEGVRLD | -0.693 ± 0.14
KRLCLVCGDIASGYHYGVASYEACKAFFKRTIQGNIEYSCPATNECEITKRRRKSCQACRFMKCLKVGMLKEGVRLD | -0.89 ± 0.41
KRLCLVCGDIASGYHYGVASWEACKAFFKRTIQGNIEYSCPATNECEITKRRRKSCQACRFMKCLKVGMLKEGVRLD | -0.94 ± 0.15
KRLCLVCGDIASGYHYGVASKEACKAFFKRTIQGNIEYSCPATNECEITKRRRKSCQACRFMKCLKVGMLKEGVRLD | -0.679 ± 0.11
KRLCLVCGDIASGYHYGVASTEACKAFFKRTIQGNIEYSCPATNECEITKRRRKSCQACRFMKCLKVGMLKEGVRLD | -0.871 ± 0.14
KRLCLVCGDIASGYHYGVASLEACKAFFKRTIQGNIEYSCPATNECEITKRRRKSCQACRFMKCLKVGMLKEGVRLD | -0.625 ± 0.076
KRLCLVCGDIASGYHYGVASQEACKAFFKRTIQGNIEYSCPATNECEITKRRRKSCQACRFMKCLKVGMLKEGVRLD | -1.01 ± 0.19
KRLCLVCGDIASGYHYGVASVEACKAFFKRTIQGNIEYSCPATNECEITKRRRKSCQACRFMKCLKVGMLKEGVRLD | -0.818 ± 0.09
KRLCLVCGDIASGYHYGFASCEACKAFFKRTIQGNIEYSCPATNECEITKRRRKSCQACRFMKCLKVGMLKEGVRLD | -0.428 ± 0.089
KRLCLVCGDIASGYHYGWASCEACKAFFKRTIQGNIEYSCPATNECEITKRRRKSCQACRFMKCLKVGMLKEGVRLD | -0.657 ± 0.094
KRLCLVCGDIASGYHYGYASCEACKAFFKRTIQGNIEYSCPATNECEITKRRRKSCQACRFMKCLKVGMLKEGVRLD | -0.663 ± 0.14
KRLCLVCGDIASGYHYGDASCEACKAFFKRTIQGNIEYSCPATNECEITKRRRKSCQACRFMKCLKVGMLKEGVRLD | -0.471 ± 0.18
KRLCLVCGDIASGYHYGCASCEACKAFFKRTIQGNIEYSCPATNECEITKRRRKSCQACRFMKCLKVGMLKEGVRLD | -0.169 ± 0.076
KRLCLVCGDIASGYHYGAASCEACKAFFKRTIQGNIEYSCPATNECEITKRRRKSCQACRFMKCLKVGMLKEGVRLD | -0.26 ± 0.072
KRLCLVCGDIASGYHYGPASCEACKAFFKRTIQGNIEYSCPATNECEITKRRRKSCQACRFMKCLKVGMLKEGVRLD | -0.331 ± 0.078
KRLCLVCGDIASGYHYGMASCEACKAFFKRTIQGNIEYSCPATNECEITKRRRKSCQACRFMKCLKVGMLKEGVRLD | 0.218 ± 0.42
KRLCLVCGDIASGYHYGGASCEACKAFFKRTIQGNIEYSCPATNECEITKRRRKSCQACRFMKCLKVGMLKEGVRLD | -0.259 ± 0.066
KRLCLVCGDIASGYHYGQASCEACKAFFKRTIQGNIEYSCPATNECEITKRRRKSCQACRFMKCLKVGMLKEGVRLD | -0.375 ± 0.089
KRLCLVCGDIASGYHYGLASCEACKAFFKRTIQGNIEYSCPATNECEITKRRRKSCQACRFMKCLKVGMLKEGVRLD | -0.613 ± 0.071
KRLCLVCGDIASGYHYGEASCEACKAFFKRTIQGNIEYSCPATNECEITKRRRKSCQACRFMKCLKVGMLKEGVRLD | -0.399 ± 0.14
KRLCLVCGDIASGYHYGHASCEACKAFFKRTIQGNIEYSCPATNECEITKRRRKSCQACRFMKCLKVGMLKEGVRLD | -0.245 ± 0.1
KRLCLVCGDIASGYHYGRASCEACKAFFKRTIQGNIEYSCPATNECEITKRRRKSCQACRFMKCLKVGMLKEGVRLD | -0.384 ± 0.07
